Consider 3 substances from US20110212075A1, “SCREENING METHOD FOR POLYMORPHIC MARKERS IN HTRA1 GENE IN NEURODEGENERATIVE DISORDERS” (SIEMENS AKTIENGESELLSCHAFT, priority 2007, published 2011).

For one experiment, the target named is T1, HtrA1 (Homo sapiens, UniProt Q92743).
T1 construct: made in house; host or cells: Escherichia coli BL21 D3+
Kind of experiment: HtrA1 activation by peptides (degradation of wt-tau, SDS/PAGE). It is filed as biochemical. The note with it: peptide 200 μM in DMSO, HtrA1 (0.04 μg) preincubated 10 minutes at 37° C., wt-tau (2 μg) 10 minutes at 37° C., Coomassie gel, FIG. 18. The procedure:
Purified wt-tau (2 μg) was incubated with HtrA1 (0.04 μg) for 10 minutes at 37° C. HtrA1 was preincubated with different peptides for 10 minutes at 37° C. All peptides were dissolved in DMSO and added to a final concentration of 200 μM. Wt-tau was incubated with DQLAFHQFYI (lane 1), KKKDSRIWWV (lane 2) and with HtrA1 and DMSO as a control (lane 3). Samples were loaded on a SDS/PAGE. The gel was stained with Coomassie Blue.
(§1) HtrA1 interacts with presenilin 1 (PS1). This was evident from data obtained from copurification, comigration during size exclusion chromatography and two hybrid analyses. […] Such a peptide could be used as a basis to synthesise a potent HtrA1 activator that could be of therapeutic relevance. […] This peptide did however not bind to HtrA1 composed of protease and PDZ domain as shown by Isothermal Titration calorimetry. Only after adding […] residues, the peptide did bind to HtrA1.

For experiment [1], the target named is T2, HtrA1 composed of protease and PDZ domain (Homo sapiens, UniProt Q92743).
T2 construct: HtrA1 composed of protease and PDZ domain
Kind of experiment: Binding of peptide to HtrA1 by Isothermal Titration calorimetry.
Text: as §1
A general note: Isothermal titration calorimetry measures the heat released or taken up as one component is titrated into another.

In the next experiment the target is PDZ domain of HtrA1 (Homo sapiens, UniProt Q92743). The note with it: Runyon et al. Protein Sci. 16:2454-71 (2007); cited from earlier work.
PDZ domain of HtrA1, sequence (Q92743 365-467 limits assumed): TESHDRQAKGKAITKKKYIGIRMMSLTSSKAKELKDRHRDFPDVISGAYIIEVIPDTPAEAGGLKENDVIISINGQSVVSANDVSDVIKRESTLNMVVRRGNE

T2 sequence (Q92743 158-480 limits assumed): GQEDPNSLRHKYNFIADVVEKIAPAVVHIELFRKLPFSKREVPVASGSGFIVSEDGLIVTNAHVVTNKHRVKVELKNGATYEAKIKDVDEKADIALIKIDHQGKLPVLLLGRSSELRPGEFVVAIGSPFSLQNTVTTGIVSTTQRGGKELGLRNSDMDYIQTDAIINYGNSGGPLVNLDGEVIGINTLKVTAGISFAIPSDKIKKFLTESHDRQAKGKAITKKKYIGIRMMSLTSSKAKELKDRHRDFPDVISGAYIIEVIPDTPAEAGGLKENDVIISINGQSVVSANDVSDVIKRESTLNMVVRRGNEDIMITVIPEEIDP
T1 sequence (Q92743 158-480 limits assumed): as above

Consider “DQLAFHQFYI [peptide comprised of the 10 C-terminal residues of PS1 (presenilin 1)]”, for which the “activation of HtrA1 as shown by a more efficient degradation of tau” value with HtrA1 is recorded as “activate HtrA1”.

Regarding DSRIWWV [reference compound], the “binding to HtrA1” value in experiment [1] is on record as “not bind”. Besides, the “binding to the PDZ domain of HtrA1” value in the experiment with PDZ domain of HtrA1 is listed as “excellent binding”.

For “KKKDSRIWWV [second peptide, DSRIWWV with 3 added N-terminal residues]”, the “binding to HtrA1” value in experiment [1] was “did bind”. Also, in the experiment with HtrA1, the “activation of HtrA1 as shown by a more efficient degradation of tau” value is on record as “weaker activator”.
